Here are results for two molecules from publication PMC2171589 (The Journal of Cell Biology, 2005).

What all share (assay): pull-down
Assay [1] has as its target ARFGAP1 as a GST fusion protein (GST-ARFGAP1) (UniProt Q62848 1-415).
Assay [2] concerns the target point mutant GAP (R50K) as GST fusion protein (GST-R50K GAP) (UniProt Q62848 1-415, R50K).
For assay [3], the target named is His-tagged, full-length, R50K point mutant GAP (UniProt Q62848 1-415, R50K).
Assay [4] addresses ARFGAP1, wild-type, 6x-his tagged, soluble (UniProt Q62848 1-415).

point mutant GAP (R50K) as GST fusion protein (GST-R50K GAP), sequence (Q62848 whole entry R50K, the tested form may be a part): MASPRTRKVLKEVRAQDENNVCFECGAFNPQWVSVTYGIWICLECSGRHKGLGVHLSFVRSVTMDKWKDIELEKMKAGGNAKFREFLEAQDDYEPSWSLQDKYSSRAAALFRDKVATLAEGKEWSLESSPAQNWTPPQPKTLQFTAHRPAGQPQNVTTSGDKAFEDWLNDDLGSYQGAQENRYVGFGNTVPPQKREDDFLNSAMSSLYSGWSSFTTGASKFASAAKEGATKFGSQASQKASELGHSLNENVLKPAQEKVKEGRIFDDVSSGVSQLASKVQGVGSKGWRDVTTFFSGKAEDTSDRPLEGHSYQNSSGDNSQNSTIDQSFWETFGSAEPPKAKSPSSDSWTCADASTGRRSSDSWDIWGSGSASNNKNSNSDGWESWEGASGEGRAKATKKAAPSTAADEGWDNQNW
His-tagged, full-length, R50K point mutant GAP, sequence (Q62848 whole entry R50K): as the sequence (Q62848 whole entry R50K, the tested form may be a part) above
ARFGAP1, wild-type, 6x-his tagged, soluble, sequence (Q62848 whole entry): as the sequence (Q62848 whole entry R50K, the tested form may be a part) above, with K50R counted along it
ARFGAP1 as a GST fusion protein (GST-ARFGAP1), sequence (Q62848 whole entry, the tested form may be a part): as the sequence (Q62848 whole entry R50K, the tested form may be a part) above, with K50R counted along it

B1: ARF1, full-length myristoylated form (ADP ribosylation factor 1) (natural protein)
chain: not shown
modifications: myristoylated
As to B1, the binding result in assay [1] and in assay [2] was “binds” in each case.

B2: GST-Wbp1 (cytoplasmic domain of Wbp1 fused to GST) (domain or fragment)
chain: KKLETFKKTN
Take B2: the binding result in assay [3] and in assay [4] was “binds” in each case.
